One may read the Kd as the concentration at which binding is half-saturated.

Assay [1] addresses human IL-18BP (recombinant, construct not stated) (human) (UniProt O95998). The assay is described as follows: Biacore. Background: Surface plasmon resonance follows binding to a sensor surface in real time, without labels.
Assay [2] has the same target. Kind of assay: KinExA. A general note: In KinExA the mixture passes briefly over coated beads that capture the unbound partner.
For assay [3], the target named is cynomolgus monkey IL-18BP (construct not stated) (cynomolgus monkey). Kind of assay: KinExA, solution equilibrium.

Sequence of human IL-18BP (recombinant, construct not stated) (human) (O95998 31-194 limits assumed): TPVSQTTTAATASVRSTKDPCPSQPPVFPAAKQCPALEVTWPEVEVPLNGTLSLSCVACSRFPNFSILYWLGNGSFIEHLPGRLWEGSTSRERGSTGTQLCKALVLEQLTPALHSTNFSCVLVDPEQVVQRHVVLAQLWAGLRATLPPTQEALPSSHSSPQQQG

For the substance “anti-human IL18BP antibody clone 136007 (cat. MAB1191, R&D systems)”, the Kd in assay [1] is 0.273 nM.

On to “anti-human IL18BP antibody clone W19089C (cat. 947703, Biolegend)”, for which, in assay [2], the Kd is 0.0638 nM.

In assay [3], “cyno IL-18 (from UniProt A0A2K5TJ84 37-193) (ligand)” had a Kd of 0.000345 nM.

The values are drawn from US20240425607A1, “IL-18BP ANTAGONIST ANTIBODIES AND THEIR USE IN MONOTHERAPY AND COMBINATION THERAPY IN THE TREATMENT OF CANCER” (Compugen Ltd., priority 2023, published 2024).
